Experimental findings from patent US20170198056A1 (MEDICINAL CHEMISTRY PHARMACEUTICALS, published 2017) are described below.

*: point of attachment. αGalNAc = CC(=O)N[C@@H]1[C@@H](O)[C@@H](O)[C@@H](CO)O[C@@H]1*

For assay [1], the target named is T1, Compound 13: … (human).
T1 construct: also called glycopeptide in which Tn has been modified in the tandem unit peptide of MUC2
T1 peptide: {5‑oxohexanoyl}-PPTT(αGalNAc)T(αGalNAc)PSPPPTSTT(αGalNAc)T(αGalNAc)LPPT-NH2
Nature of the assay: glycopeptide microarray, Cy3 anti-mouse IgG.
Procedure: (§1) A substrate for an immobilized sugar chain array (made by Sumitomo Bakelite) was treated for 2 hours at 37° C. with 2 M HCl and the t-butoxycarbonyl group (Boc group) protection was removed. The product was washed twice with water and then dried to place aminoxy groups on the surface of the substrate. A spotting solution (25 mM AcOH/pyridine, 0.005% Triton X-100, pH 5.4) was added to the various synthetic glycopeptides shown in Table 1 to dissolve them. A spotter (BioChip Arrayer, made by Cartesion) employed a spot pin (CMP, pin diameter 0.4 mm, Arraylt Corp.) to spot the substrate. A reaction was conducted for 1 hour at 80° C. to immobilize the glycopeptides on the substrate. Washing was conducted once with water, the product was immersed in 10 mg/mL succinic anhydride, a reaction was conducted for 3 hours at room temperature, and the unreacted aminooxy groups were protected. Washing was conducted twice with water and the product was dried.
(§2) The reaction supernatant was diluted 10-fold with the reaction solution given below. A Hybricover (made by Sumitomo Bakelite) was placed on the immobilized glycopeptide array, 70 μL of the diluted solution was spread out, and a reaction was conducted for 2 hours at room temperature. […] Fluorescent intensity of Cy3 was measured with a scanner (Typhoon TRIO+, GE Healthcare). […]

Assay [2] deals with T2, Compound 15: 5-oxohexanoyl-Ser-Ala-Ser-Thr-Gly-His-Ala-Thr(Tn)-Pro-Leu-Pro-Val-Thr-Asp-Thr-Ser-Cys-NH2 (human).
T2 construct: also called glycopeptide in which Tn has been modified in the tandem unit peptide of MUC4
T2 peptide: {5‑oxohexanoyl}-SASTGHAT(αGalNAc)PLPVTDTSC-NH2
As to the kind of experiment: glycopeptide microarray, Cy3 anti-mouse IgG.
Procedure: as §1, §2

B1: Monoclonal antibody SN-101 (antibody, V domains shown)
VH: EVNLEESGGGLVQPGGSMKLSCVASGFTFSNYWMNWVRQSPEKGLEWVAQIRLKSDNYATHYAESVKGRFTISRDDSKSSVYLQMNNLRAEDTGIYYCTGGVFDYWGQGTTLTVSS
VL: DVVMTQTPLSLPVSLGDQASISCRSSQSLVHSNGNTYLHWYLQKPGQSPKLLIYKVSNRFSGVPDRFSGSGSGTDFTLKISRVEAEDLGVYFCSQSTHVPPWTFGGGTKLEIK
notes: Mouse monoclonal antibody from a hybridoma; it was purified on Protein G and detected with anti-mouse IgG; The array assay used culture supernatant diluted 10-fold; also called antibody of hybridoma strain 3A9-4B1 (NITE BP-01845)
For the molecule B1, the binding result in assay [1] and in assay [2] was “no binding” throughout.
